Test [1] concerns the target T1, BFL-1ΔC C4S/C19S (human, UniProt Q16548 1-153).
T1 construct: range 1-153; Made by site-directed mutagenesis of BFL-1ΔC; also called His-BFL-1ΔC C4S/C19S; C55-only BFL-1; not shown: N-terminal His tag from the pET19b vector
T1 sequence (looked up): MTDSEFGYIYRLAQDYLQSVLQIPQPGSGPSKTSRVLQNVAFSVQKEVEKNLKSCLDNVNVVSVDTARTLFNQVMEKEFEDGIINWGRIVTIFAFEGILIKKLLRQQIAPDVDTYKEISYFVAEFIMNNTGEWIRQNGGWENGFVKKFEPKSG
Nature of the test: covalent conjugation, 10:1 peptide:protein, reducing denaturing gel, Coomassie. The protocol: Processing for gel electrophoresis and Coomassie staining was performed as above.

Test [2] addresses T2, BFL-1ΔC (aa 1-153) (human, UniProt Q16548 1-153).
T2 construct: also called wild-type BFL-1ΔC; BFL-1 WT
T2 sequence: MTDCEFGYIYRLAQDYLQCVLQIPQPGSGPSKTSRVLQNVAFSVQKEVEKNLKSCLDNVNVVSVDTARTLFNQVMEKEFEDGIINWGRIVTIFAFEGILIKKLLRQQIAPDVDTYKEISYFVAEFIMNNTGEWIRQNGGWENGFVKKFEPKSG
Nature of the test: covalent conjugation with BFL-1 cysteine mutants, gel shift.

The target in test [3] is T3, HA-BFL-1ΔC C4S/C19S (human, UniProt Q16548 1-153).
T3 construct: range 1-153; also called expressed HA-BFL-1ΔC C4S/C19S; not shown: HA tag (pCMV plasmid)
T3 sequence (looked up): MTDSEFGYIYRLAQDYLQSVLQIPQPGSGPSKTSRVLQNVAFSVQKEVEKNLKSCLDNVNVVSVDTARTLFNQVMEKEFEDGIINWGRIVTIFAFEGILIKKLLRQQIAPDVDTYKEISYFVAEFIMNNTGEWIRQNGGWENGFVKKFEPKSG
Nature of the test: 293T lysates, 10 µM biotinylated peptide, anti-HA and anti-biotin western. The protocol: For lysate experiments, cells were trypsinized 24 hours post-transfection, washed with PBS, and lysed by incubation with 1% CHAPS lysis buffer (150 mM NaCl, 50 mM Tris pH 7.4, 100 mM DTT). Protein concentration of the soluble fraction was measured using a BCA kit according to manufacturer's instructions (Thermo Scientific). […] Samples were then boiled in LDS buffer and subjected to western analysis using 1:1000 dilutions of HA (Sigma-Aldrich, #12CA5) and biotin (Abcam, #53494) antibodies. […] After 24 h, cells were trypsinized, washed with PBS, lysed in 1% CHAPS buffer, and the supernatant collected for protein concentration determination by BCA kit. […] The mixtures were then subjected to HA or FLAG (Sigma-Aldrich, F7425) immunoprecipitation, followed by western analysis using 1:1000 dilutions of HA, FLAG, biotin, and BID (Santa Cruz sc-11423) antibodies. […] Cells were harvested and lysed as above, and incubated overnight with anti-HA agarose beads (Pierce). The beads were washed 3 times with lysis buffer, eluted by boiling in LDS buffer, and subjected to western analysis with HA and biotin antibodies.

In test [4] the target is T4, MCL-1 (Examples 1-4) (UniProt Q07820 170-327, limits assumed).
T4 construct: also called MCL-I
Nature of the test: fluorescence polarization, FITC-labelled SAHB, protein serially diluted from 1 µM. The protocol: (§1) The solution-state equilibrium binding assay was used to determine binding affinities of the stapled peptides to the anti-apoptotic proteins. Proteins were serially diluted from 1 μM, then combined with FITC-labeled SAHB and polarization measured at 5 min on a microplate reader. We then calculated dissociation constants (KD) by nonlinear regression analysis of dose-response curves.

Test [5] has as its target T5, Bfl-1 (Examples 1-4) (UniProt Q16548 1-153, limits assumed).
T5 construct: also called 9×His-tagged Bfl-1
T5 sequence (looked up): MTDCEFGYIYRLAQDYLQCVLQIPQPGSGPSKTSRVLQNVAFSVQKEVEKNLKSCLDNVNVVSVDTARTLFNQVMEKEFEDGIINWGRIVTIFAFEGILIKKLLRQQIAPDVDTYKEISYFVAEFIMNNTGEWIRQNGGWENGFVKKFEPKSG
The test is described as above. How it is done: as §1

The target in test [6] is T1, BFL-1ΔC C4S/C19S. The test is described as follows: biolayer interferometry (Octet RED384): biotin-PEG-NOXA SAHB on super streptavidin tips, BFL-1ΔC construct in solution. The protocol: (§2) Excess streptavidin was quenched by incubation with 2 μg/mL biocytin. The tips were then washed with kinetics buffer and soaked in a serial dilution of BFL-1ΔC for 10 min to measure association rate, followed by a 15 min incubation in kinetics buffer to measure dissociation rate. Dissociation constants were calculated using Octet Data Analysis version 9.0.

The target in test [7] is T6, BFL-1ΔC C4S/C19S/C55S (human, UniProt Q16548 1-153).
T6 construct: range 1-153; Made by site-directed mutagenesis of BFL-1ΔC; also called BFL-1 with no cysteines; not shown: N-terminal His tag from the pET19b vector
T6 sequence (looked up): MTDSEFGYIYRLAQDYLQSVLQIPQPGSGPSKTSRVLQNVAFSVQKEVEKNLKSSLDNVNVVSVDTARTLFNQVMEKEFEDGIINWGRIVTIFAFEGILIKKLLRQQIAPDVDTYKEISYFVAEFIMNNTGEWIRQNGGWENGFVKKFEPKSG
The description is as above. The protocol: as §2

In test [8] the target is T2, BFL-1ΔC (aa 1-153). The test is described as above. The protocol:
as §2

Numbered stars: 1 amine (or outer) side, 2 acyl side, 3 side chain; on linkers, the order of the positions; unused ones are H or OH. Bridge positions count the residues as written; N and C are the ends. Square brackets hold non-standard residues; d marks the D form. Ends that are not written are not given here. * marks the point of attachment. warhead 3 = D-nipecotic acid acylated with acrylic acid, in place of L21, C=CC(=O)N1CCC[C@@H](C(=O)*)C1; Nip(3R) = O=C([C@@H]1CCCN([*:1])C1)[*:2]; warhead 1 = not defined here; S5 = C=CCCC[C@](C)(N)C(=O)O; Acryloyl = C=CC(=O)*

T4 sequence (Q07820 170-327 limits assumed): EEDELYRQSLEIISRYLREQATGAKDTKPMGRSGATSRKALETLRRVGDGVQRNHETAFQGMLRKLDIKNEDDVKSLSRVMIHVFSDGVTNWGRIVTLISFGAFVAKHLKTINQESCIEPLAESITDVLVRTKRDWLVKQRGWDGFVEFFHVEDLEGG

B1: BIM SAHBA bearing warhead 1 (of FIG. 12B) (peptide)
peptide: [(3S)‑1‑acryloylpyrrolidine‑3‑carboxylic acid]IAQELR[S5]IGD[S5]FNAYYARR
modifications: staple 8-12
notes: also called BIM SAHBA-WH, warhead 1
B1: in test [1], the binding result is on record as “binds”.

B2: NOXA SAHBA-3 (peptide)
peptide: [warhead 3]EVESATQLR[S5]FGD[S5]LNFRQKLL
modifications: staple 11-15; also: biotinylated form carries C-terminal Lys-biotin
notes: also called NOXA SAHBA-WH with warhead 3; biotinylated NOXA SAHBA-3
In the case of B2, the binding result in test [2], in test [1] and in test [3] was “binds” in each case.

B3: NOXA SAHBA bearing warhead 8 (of FIG. 12B) (peptide)
peptide: Acryloyl-EVESATQLR[S5]FGD[S5]LNFRQKLL
modifications: staple 10-14
notes: also called NOXA SAHBA-WH, warhead 8
For the molecule B3, in test [1], the binding result was “binds”.

B4: NOXA SAHBA bearing warhead 1 (of FIG. 12B) (peptide)
peptide: [warhead 1]EVESATQLR[S5]FGD[S5]LNFRQKLL
modifications: staple 11-15; reading uncertain
notes: also called NOXA SAHBA-WH, warhead 1
On to B4, for which the binding result in test [1] is given as “binds”.

B5: BIM SAHBA-3 (peptide)
peptide: [Nip(3R)](Acryloyl)IAQELR[S5]IGD[S5]FNAYYARR
modifications: staple 8-12
notes: also called BIM SAHBA-WH with warhead 3; biotinylated BIM SAHBA-3
Consider B5, for which the binding result in test [2], in test [1] and in test [3] was “binds” throughout.

B6: NOXA SAHBA (peptide)
peptide: AELEVECATQLR[S5]FGD[S5]LNFRQKLL
modifications: staple 13-17; also: N-terminus PEG-biotin or FITC depending on assay
notes: Stapled NOXA BH3 peptide (aa 19-43) with native C25; also called WT NOXA SAHB; wild-type NOXA SAHBA
In the case of B6, the half-maximal effective concentration (EC50 (read off the curve)) in test [4] was about 200 nM; in test [5], about 100 nM. Also, the Kd in test [6] was found to be 165 nM; in test [7] it was 118 nM; in test [8] it was 122 nM.

B7: NOXA SAHBA C25S (peptide)
peptide: AELEVESATQLR[S5]FGD[S5]LNFRQKLL
modifications: staple 13-17; also: N-terminus PEG-biotin or FITC depending on assay
notes: Stapled NOXA BH3 peptide with C25S; also called NOXA C25S SAHB; NOXA C25 SAHB
Consider B7, for which the Kd in test [6] worked out at 47.2 nM; in test [7], 58.2 nM; in test [8] it was 46.6 nM.

B8: NOXA SAHBA F32Y (peptide)
peptide: AELEVECATQLR[S5]YGD[S5]LNFRQKLL
modifications: staple 13-17; also: FITC-labelled, site not given here
notes: member of the group m25; also called NOXA SAHB F32 variant with tyrosine
With B8, the binding result in test [4] is listed as “no binding (tested: 1e-6 M)”. Besides, the “EC50 (read off the curve)” value in test [5] is about 200 nM.

B9: BIM SAHBA bearing warhead 8 (of FIG. 12B) (peptide)
peptide: Acryloyl-IAQELR[S5]IGD[S5]FNAYYARR
modifications: staple 7-11
notes: also called BIM SAHBA-WH, warhead 8
For B9, the binding result in test [1] was “binds”.

Source of the values: US20190002506A1 (Dana-Farber, published 2019).
